T1: PabA, glutaminase subunit of aminodeoxychorismate synthase (ADCS) from Escherichia coli, wild type (Escherichia coli, UniProt P00903 1-187)
T1 sequence: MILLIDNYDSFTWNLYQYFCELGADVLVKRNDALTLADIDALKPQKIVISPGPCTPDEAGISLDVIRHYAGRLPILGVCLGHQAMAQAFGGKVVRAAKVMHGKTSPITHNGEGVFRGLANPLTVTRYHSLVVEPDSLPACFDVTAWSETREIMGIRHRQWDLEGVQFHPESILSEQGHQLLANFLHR

B1: PabA variant aS171A (enzyme, Escherichia coli)
chain: MILLIDNYDSFTWNLYQYFCELGADVLVKRNDALTLADIDALKPQKIVISPGPCTPDEAGISLDVIRHYAGRLPILGVCLGHQAMAQAFGGKVVRAAKVMHGKTSPITHNGEGVFRGLANPLTVTRYHSLVVEPDSLPACFDVTAWSETREIMGIRHRQWDLEGVQFHPEAILSEQGHQLLANFLHR
notes: PabA, glutaminase subunit of ADCS, E. coli; construct as m1 with one exchange; Made by QuikChange mutagenesis from the construct of m1; source: E. coli BL21-Gold (DE3), purified (Ni-IMAC, preparative gel filtration)
B2: PabA variant aH128A (enzyme, Escherichia coli)
chain: MILLIDNYDSFTWNLYQYFCELGADVLVKRNDALTLADIDALKPQKIVISPGPCTPDEAGISLDVIRHYAGRLPILGVCLGHQAMAQAFGGKVVRAAKVMHGKTSPITHNGEGVFRGLANPLTVTRYASLVVEPDSLPACFDVTAWSETREIMGIRHRQWDLEGVQFHPESILSEQGHQLLANFLHR
notes: as for B1
B3: PabA variant aC54G (enzyme, Escherichia coli)
chain: MILLIDNYDSFTWNLYQYFCELGADVLVKRNDALTLADIDALKPQKIVISPGPGTPDEAGISLDVIRHYAGRLPILGVCLGHQAMAQAFGGKVVRAAKVMHGKTSPITHNGEGVFRGLANPLTVTRYHSLVVEPDSLPACFDVTAWSETREIMGIRHRQWDLEGVQFHPESILSEQGHQLLANFLHR
notes: as for B1
B4: PabA variant aR30E (enzyme, Escherichia coli)
chain: MILLIDNYDSFTWNLYQYFCELGADVLVKENDALTLADIDALKPQKIVISPGPCTPDEAGISLDVIRHYAGRLPILGVCLGHQAMAQAFGGKVVRAAKVMHGKTSPITHNGEGVFRGLANPLTVTRYHSLVVEPDSLPACFDVTAWSETREIMGIRHRQWDLEGVQFHPESILSEQGHQLLANFLHR
notes: as for B1
B5: PabA variant aC54A (enzyme, Escherichia coli)
chain: MILLIDNYDSFTWNLYQYFCELGADVLVKRNDALTLADIDALKPQKIVISPGPATPDEAGISLDVIRHYAGRLPILGVCLGHQAMAQAFGGKVVRAAKVMHGKTSPITHNGEGVFRGLANPLTVTRYHSLVVEPDSLPACFDVTAWSETREIMGIRHRQWDLEGVQFHPESILSEQGHQLLANFLHR
notes: as for B1
B6: PabA variant aP53A (enzyme, Escherichia coli)
chain: MILLIDNYDSFTWNLYQYFCELGADVLVKRNDALTLADIDALKPQKIVISPGACTPDEAGISLDVIRHYAGRLPILGVCLGHQAMAQAFGGKVVRAAKVMHGKTSPITHNGEGVFRGLANPLTVTRYHSLVVEPDSLPACFDVTAWSETREIMGIRHRQWDLEGVQFHPESILSEQGHQLLANFLHR
notes: as for B1
B7: PabB, synthase subunit of aminodeoxychorismate synthase (ADCS) from Escherichia coli, wild type (enzyme)
chain: MKTLSPAVITLLWRQDAAEFYFSRLSHLPWAMLLHSGYADHPYSRFDIVVAEPICTLTTFGKETVVSESEKRTTTTDDPLQVLQQVLDRADIRPTHNEDLPFQGGALGLFGYDLGRRFESLPEIAEQDIVLPDMAVGIYDWALIVDHQRHTVSLLSHNDVNARRAWLESQQFSPQEDFTLTSDWQSNMTREQYGEKFRQVQEYLHSGDCYQVNLAQRFHATYSGDEWQAFLQLNQANRAPFSAFLRLEQGAILSLSPERFILCDNSEIQTRPIKGTLPRLPDPQEDSKQAVKLANSAKDRAENLMIVDLMRNDIGRVAVAGSVKVPELFVVEPFPAVHHLVSTITAQLPEQLHASDLLRAAFPGGSITGAPKVRAMEIIDELEPQRRNAWCGSIGYLSFCGNMDTSITIRTLTAINGQIFCSAGGGIVADSQEEAEYQETFDKVNRILKQLEK
B8: PabB variant bR311A (enzyme, Escherichia coli)
chain: MKTLSPAVITLLWRQDAAEFYFSRLSHLPWAMLLHSGYADHPYSRFDIVVAEPICTLTTFGKETVVSESEKRTTTTDDPLQVLQQVLDRADIRPTHNEDLPFQGGALGLFGYDLGRRFESLPEIAEQDIVLPDMAVGIYDWALIVDHQRHTVSLLSHNDVNARRAWLESQQFSPQEDFTLTSDWQSNMTREQYGEKFRQVQEYLHSGDCYQVNLAQRFHATYSGDEWQAFLQLNQANRAPFSAFLRLEQGAILSLSPERFILCDNSEIQTRPIKGTLPRLPDPQEDSKQAVKLANSAKDRAENLMIVDLMANDIGRVAVAGSVKVPELFVVEPFPAVHHLVSTITAQLPEQLHASDLLRAAFPGGSITGAPKVRAMEIIDELEPQRRNAWCGSIGYLSFCGNMDTSITIRTLTAINGQIFCSAGGGIVADSQEEAEYQETFDKVNRILKQLEK
B9: PabB variant bD308E (enzyme, Escherichia coli)
chain: MKTLSPAVITLLWRQDAAEFYFSRLSHLPWAMLLHSGYADHPYSRFDIVVAEPICTLTTFGKETVVSESEKRTTTTDDPLQVLQQVLDRADIRPTHNEDLPFQGGALGLFGYDLGRRFESLPEIAEQDIVLPDMAVGIYDWALIVDHQRHTVSLLSHNDVNARRAWLESQQFSPQEDFTLTSDWQSNMTREQYGEKFRQVQEYLHSGDCYQVNLAQRFHATYSGDEWQAFLQLNQANRAPFSAFLRLEQGAILSLSPERFILCDNSEIQTRPIKGTLPRLPDPQEDSKQAVKLANSAKDRAENLMIVELMRNDIGRVAVAGSVKVPELFVVEPFPAVHHLVSTITAQLPEQLHASDLLRAAFPGGSITGAPKVRAMEIIDELEPQRRNAWCGSIGYLSFCGNMDTSITIRTLTAINGQIFCSAGGGIVADSQEEAEYQETFDKVNRILKQLEK
B10: PabB variant bD308A (enzyme, Escherichia coli)
chain: MKTLSPAVITLLWRQDAAEFYFSRLSHLPWAMLLHSGYADHPYSRFDIVVAEPICTLTTFGKETVVSESEKRTTTTDDPLQVLQQVLDRADIRPTHNEDLPFQGGALGLFGYDLGRRFESLPEIAEQDIVLPDMAVGIYDWALIVDHQRHTVSLLSHNDVNARRAWLESQQFSPQEDFTLTSDWQSNMTREQYGEKFRQVQEYLHSGDCYQVNLAQRFHATYSGDEWQAFLQLNQANRAPFSAFLRLEQGAILSLSPERFILCDNSEIQTRPIKGTLPRLPDPQEDSKQAVKLANSAKDRAENLMIVALMRNDIGRVAVAGSVKVPELFVVEPFPAVHHLVSTITAQLPEQLHASDLLRAAFPGGSITGAPKVRAMEIIDELEPQRRNAWCGSIGYLSFCGNMDTSITIRTLTAINGQIFCSAGGGIVADSQEEAEYQETFDKVNRILKQLEK
B11: PabB variant bE119R (enzyme, Escherichia coli)
chain: MKTLSPAVITLLWRQDAAEFYFSRLSHLPWAMLLHSGYADHPYSRFDIVVAEPICTLTTFGKETVVSESEKRTTTTDDPLQVLQQVLDRADIRPTHNEDLPFQGGALGLFGYDLGRRFRSLPEIAEQDIVLPDMAVGIYDWALIVDHQRHTVSLLSHNDVNARRAWLESQQFSPQEDFTLTSDWQSNMTREQYGEKFRQVQEYLHSGDCYQVNLAQRFHATYSGDEWQAFLQLNQANRAPFSAFLRLEQGAILSLSPERFILCDNSEIQTRPIKGTLPRLPDPQEDSKQAVKLANSAKDRAENLMIVDLMRNDIGRVAVAGSVKVPELFVVEPFPAVHHLVSTITAQLPEQLHASDLLRAAFPGGSITGAPKVRAMEIIDELEPQRRNAWCGSIGYLSFCGNMDTSITIRTLTAINGQIFCSAGGGIVADSQEEAEYQETFDKVNRILKQLEK
B12: PabB variant bD308N (enzyme, Escherichia coli)
chain: MKTLSPAVITLLWRQDAAEFYFSRLSHLPWAMLLHSGYADHPYSRFDIVVAEPICTLTTFGKETVVSESEKRTTTTDDPLQVLQQVLDRADIRPTHNEDLPFQGGALGLFGYDLGRRFESLPEIAEQDIVLPDMAVGIYDWALIVDHQRHTVSLLSHNDVNARRAWLESQQFSPQEDFTLTSDWQSNMTREQYGEKFRQVQEYLHSGDCYQVNLAQRFHATYSGDEWQAFLQLNQANRAPFSAFLRLEQGAILSLSPERFILCDNSEIQTRPIKGTLPRLPDPQEDSKQAVKLANSAKDRAENLMIVNLMRNDIGRVAVAGSVKVPELFVVEPFPAVHHLVSTITAQLPEQLHASDLLRAAFPGGSITGAPKVRAMEIIDELEPQRRNAWCGSIGYLSFCGNMDTSITIRTLTAINGQIFCSAGGGIVADSQEEAEYQETFDKVNRILKQLEK
B13: PabA double variant [Y127A, S171A] (enzyme, Escherichia coli)
chain: MILLIDNYDSFTWNLYQYFCELGADVLVKRNDALTLADIDALKPQKIVISPGPCTPDEAGISLDVIRHYAGRLPILGVCLGHQAMAQAFGGKVVRAAKVMHGKTSPITHNGEGVFRGLANPLTVTRAHSLVVEPDSLPACFDVTAWSETREIMGIRHRQWDLEGVQFHPEAILSEQGHQLLANFLHR
notes: PabA, glutaminase subunit of ADCS, E. coli; construct as m1 with two exchanges; Made by mutagenesis from the construct of m1; source: E. coli BL21-Gold (DE3), purified (Ni-IMAC, preparative gel filtration)

What follows are binders tested against B7 (assay: ITC; 250 μM PabB titrated into 25 μM PabA in the cell; 25 °C; 50 mM Tris/HCl pH 7.5, 50 mM KCl, 5 mM MgCl2; without Cho and Gln; one set of sites). Details: both partners purified.
B1 showed a Kd of 920 nM.
For B2, the Kd was 370 nM.
B3 gave a Kd of 60 nM.
B4 showed a Kd of 380 nM.
B5 gave a Kd of 180 nM.
B6 gave a Kd of 180 nM.

Each binder was assayed against T1, PabA, glutaminase subunit of … (assay: cell-based or functional assay). Details: not given.
In the case of B7, the “glutaminase catalytic efficiency kcat/KM^Gln (coupled GDH assay, 200 μM Cho, PabB in fourfold excess)” value is reported as 1090 M⁻¹ s⁻¹.
For B8, the “glutaminase catalytic efficiency kcat/KM^Gln (coupled GDH assay, 200 μM Cho, PabB in fourfold excess)” value was 100 M⁻¹ s⁻¹.
With B9 the “glutaminase catalytic efficiency kcat/KM^Gln (coupled GDH assay, 200 μM Cho, PabB in fourfold excess)” value was 1540 M⁻¹ s⁻¹.
With B10 the “glutaminase catalytic efficiency kcat/KM^Gln (coupled GDH assay, 200 μM Cho, PabB in fourfold excess)” value was 13 M⁻¹ s⁻¹.
For B11, the “glutaminase catalytic efficiency kcat/KM^Gln (coupled GDH assay, 200 μM Cho, PabB in fourfold excess)” value was 60 M⁻¹ s⁻¹.
With B12 the “glutaminase catalytic efficiency kcat/KM^Gln (coupled GDH assay, 200 μM Cho, PabB in fourfold excess)” value was 36 M⁻¹ s⁻¹.

These binders were tested against B4 (assay: cell-based or functional assay). Details: not given.
With B7 the “glutaminase catalytic efficiency kcat/KM^Gln (coupled GDH assay, 200 μM Cho, PabB in fourfold excess)” value was 79 M⁻¹ s⁻¹.

What follows are binders tested against B7 (assay: SEC; analytical SEC with 5 mM L-Gln in the buffer; PabA and PabB mixed equimolar, 50 μM each; Superdex 200 increase 10/300 GL; 50 mM Tris/HCl pH 7.5, 50 mM KCl, 5 mM MgCl2, 2 mM DTT; 25 °C; without Cho). Details: both partners purified.
B13: binds.

Reference: publication PMC7617670, “Activity Regulation of a Glutamine Amidotransferase Bienzyme Complex by Substrate-Induced Subunit Interface Expansion” (ACS catalysis, 2025)
